# Test results as given in paper PMC12571865, “Profiling of HIV-1 elite neutralizer cohort reveals a CD4bs bnAb for HIV-1 prevention and therapy” (Nature immunology, 2025).
# B1: PGDM1400 Fab (Fab, V domains shown)
# VH: QAQLVQSGPEVRKPGTSVKVSCKAPGNTLKTYDLHWVRSVPGQGLQWMGWISHEGDKKVIVERFKAKVTIDWDRSTNTAYLQLSGLTSGDTAVYYCAKGSKHRLRDYALYDDDGALNWAVDVDYLSNLEFWGQGTAVTVSS
# VL: DFVLTQSPHSLSVTPGESASISCKSSHSLIHGDRNNYLAWYVQKPGRSPQLLIYLASSRASGVPDRFSGSGSDKDFTLKISRVETEDVGTYYCMQGRESPWTFGQGTKVDIK
# Target: T1, BG505 SOSIP.664 Env trimer (preparation for cryo-EM) (HIV-1 (strain BG505), UniProt Q2N0S6)
# T1 construct: also called BG505_(SOSIP) trimer; source: Expi293F, transient co-transfection with a furin-encoding plasmid; copies: 3 + 3
# Experiment: cryo-EM structure; Fab–trimer complexes in TBS, incubated overnight at room temperature: 04_A06–PGDM1400–BG505 at 3.6:1.2:1 (Fab:Fab:trimer), purified on Superose-6 Increase; 01_D03–BG505 and 05_B08–BG505 at 3.6:1 (Fab:trimer) without further SEC
# Details: both partners purified
binder,measurement,value
B1,stoichiometry N,1 Fab per trimer
